Assay [1] addresses thermolysin-cleaved SUDV GP (GP(S)THL) (Sudan virus (SUDV)) (UniProt Q7T9D9). The assay is described as follows: BLI, Fab, pH 7.4. Background: In BLI a coated tip is dipped into the sample, and binding shifts an interference pattern.
Assay [2] has the same target. The assay is described as follows: BLI, Fab, pH 5.3.
For assay [3], the target named is full-length Sudan GP (GPFL) (Sudan virus (SUDV)) (UniProt Q7T9D9). Put plainly: BLI, Fab, pH 7.4.
The target is the same in assay [4]. The assay is described as follows: BLI, Fab, pH 5.3.

Consider two molecules from US20260209316A1.

B1: Fab generated from 291S (Fab, V domains shown)
VH: QVQLQESGPGLVKPSQTLSLTCTVSGGSFSSGFYWSWIRQRPGKGLEWVGYTYYSGSTYYNPSLQSRVTISVDTSKNQFSLNLSSVTAADTAVYHCARADYGGLFDYWGQGILVTVSS
VL: QSVLTQPSSLSASPGASASLTCTLRSGINVGTYRIFWYQQKPGSPPQFLLRYNSDSDKQQGSGVPSRFSGSKDASANAGILLISGLQSEDEADYYCMIWHTSAWVFGGGTKLTVL
The term Kd denotes a measure of binding affinity in units of concentration. Low values mean tighter binding, high ones weaker binding. As usually defined, the koff is a measure of how fast the partners let go of each other. Read a high koff as fast dissociation. One may read the kon as the second-order rate constant of association. The low end stands for slower complex formation, the high end for faster complex formation. Regarding B1, in assay [1], the Kd is 0.19 nM, the koff came to 5.1e-05 s⁻¹ and the kon is 264000 M⁻¹ s⁻¹. Further, in assay [2], the Kd was 0.67 nM, the koff turned out to be 0.000166 s⁻¹ and the kon was determined as 248000 M⁻¹ s⁻¹.

B2: Fab generated from 246S (Fab, V domains shown)
VH: QVQLVQSGAEVKKPGSSVKVSCKASGDTFSTYAITWVRQAPGQGLEWMGRIIPILGVTNYAQKFQGRVTFTADKSTITAYLELVNLRSEDTAVYYCTRDGYGGRDLLLNYYWGQGTLVTVSS
VL: EIVLTQSPGLLFWFPGERATLSCRASQSVSSSKLAWYQQKPGQAPRLLIYGASSRAPGIPDRFSGSGSGTDFTLTINRLEPEDFAVYFCQQYGSAQWTFGQGTKVDFK
In assay [3], B2 displayed a Kd of 23.2 nM, a koff of 0.000493 s⁻¹ and a kon of 21200 M⁻¹ s⁻¹. In assay [4], this molecule gave a Kd of 34.2 nM, a koff of 0.000384 s⁻¹ and a kon of 11200 M⁻¹ s⁻¹.
